Laboratory results taken from US20170106021A1, “COMPOSITIONS ENRICHED FOR HOX11+ STEM CELLS AND METHODS OF PREPARING THE SAME” (The General Hospital Corporation, priority 2014, published 2017).

B1: granulocyte colony-stimulating factor (protein, UniProt P09919 31-207, looked up)
Granulocyte …: TPLGPASSLPQSFLLKCLEQVRKIQGDGAALQEKLVSECATYKLCHPEELVLLGHSLGIPWAPLSSCPSQALQLAGCLSQLHSGLFLYQGLLQALEGISPELGPTLDTLQLDVADFATTIWQQMEELGMAPALQPTQGAMPAFASAFQRRAGGVLVASHLQSFLEVSYRVLRHLAQP
notes: cytokine mobilization agent administered to donors to mobilize stem cells to peripheral blood

Experiments:
mobilized stem cells = details: plerixafor 240 μg/kg; cited from earlier work
[1] = system: CD34 mRNA expression in PBLs; test: Quantitative real-time PCR of CD34 mRNA in peripheral blood lymphocytes (PBLs) of donors; format: in vivo, human; details: PBLs from G-CSF treated donors (mobilized, n=18) vs non-treated donors (non-mobilized, n=10); normalized to β-actin; p=0.02; FIGS. 1A, 1C
Experimental: (§1) All −70° C. frozen human peripheral blood cell samples used for this study were either from the Core Center of Excellence in Hematology (CCEH) at the Fred Hutchison Cancer Research Center or from Massachusetts General Hospital (MGH). These peripheral blood samples were obtained from donors not treated (non-mobilized samples) or treated with recombinant G-CSF (mobilized samples). Additional samples include peripheral blood samples from G-CSF treated donors that were further enriched for CD34+ stem cells. The non-mobilized, mobilized, and CD34+ stem cell enriched samples were obtained following human consent protocol 985.03-2 from Fred Hutchison Cancer Research Center. Additional fresh peripheral blood lymphocytes (PBLs) that were used to standardize the mRNA expressions of the frozen PBLs samples were obtained following human consent protocol MGH-2001P001379 from MGH, which involved the obligatory informed consent of all subjects.
(§2) Peripheral blood lymphocytes (PBLs) isolated from peripheral blood samples through leukapheresis were thawed in 37° C. water bath and washed with PBS+1% FBS twice. […] Quantitative real-time PCR was performed using Power SYBR Green reagent (Applied Biosystems, Foster City, Calif.) and the 7000 Real-Time PCR System.
(§3) Relative mRNA expression was calculated using a comparative count method (ddCT method). […]

[2] = system: Hox11 mRNA expression in PBLs; test: Quantitative real-time PCR of Hox11 mRNA in peripheral blood lymphocytes (PBLs) of donors; format: in vivo, human; details: PBLs from G-CSF treated donors (mobilized, n=18) vs non-treated donors (non-mobilized, n=10); normalized to β-actin; p=0.000013; FIGS. 1B, 1D
Experimental: as §1, §2, §3

Row | Molecule | time at which the number of mobilized stem cells peaks after administration (mobilized stem cells) | CD34 mRNA expression (relative quantity) [1] | Hox11 mRNA expression (relative quantity) [2]
1 | c1cc(CN2CCCNCCNCCCNCC2)ccc1CN1CCCNCCNCCCNCC1 [plerixafor] | 4 to 10 h |  | 
2 | B1 |  | exclusively found in PBLs isolated from mobilized peripheral blood samples | exclusively found in PBLs isolated from mobilized peripheral blood samples
